Experimental data taken from patent US8313731B2 (priority 2002, dated 2012).

System: HeLa cells
Type: cell-based, Human

B1: Holo-neocarzinostatin (protein, UniProt P0A3R9 35-147, looked up)
Neocarzinostatin: AAPTATVTPSSGLSDGTVVKVAGAGLQAGTAYDVGQCAWVDTGVLACNPADFSSVTADANGSASTSLTVRRSFEGFLFDGTRWGTVDCTTAACQVGLSDAAGNGPEGVAISFN
modifications: enediyne chromophore bound
  cell survival: ≥ 90%
37° C.
  incubation time within which full cytotoxic effect develops: ≤ 6 min
read-out: concentration of drug that kills 50% of the cell population
  IC50: 0.71 ± 0.05 nM
